# Values quoted from earlier work, collected in paper PMC4604100, “Melanocortin agonists stimulate lipolysis in human adipose tissue explants but not in adipocytes” (BMC Research Notes, 2015).
# B1: Agouti/ASIP: agouti/agouti signaling protein, endogenous melanocortin receptor antagonist (protein, UniProt P42127 23-132, looked up)
# Agouti-signaling protein: HLPPEEKLRDDRSLRSNSSVNLLDVPSVSIVALNKKSKQIGRKAAEKKRSSKKEASMKKVVRPRTPLSAPCVATRNSCKPPAPACCDPCASCQCRFFRSACSCRVLSLNC
# System: MC1R
# Conditions: ref [24]
# From the text: It is still rather unclear as to what extent peripherally expressed MCRs regulate metabolism. […] In addition, POMC expression has been identified in peripheral tissues such as the skin, testes, ovaries, placenta, adrenal glands, gastrointestinal tract, immune cells and tumors. The peripheral melanocortin system was initially examined f ...
molecule,measurement,value
B1,antagonism on MC1R (in words),high affinity antagonist
